Experimental data published in US10472652B2, “Chemical engineering processes and apparatus for the synthesis of compounds” (TEEWINOT T[…], priority 2013, dated 2019).

Molecular target: T1, THCA synthase (Cannabis sativa, UniProt Q8GTB6)
T1 construct: His-tag (C); made in house; host or cells: Pichia pastoris (PichiaPink, pPink-HC vector), secreted into the medium; cell-free T3 supernatant used
T1 sequence (Q8GTB6 29-545): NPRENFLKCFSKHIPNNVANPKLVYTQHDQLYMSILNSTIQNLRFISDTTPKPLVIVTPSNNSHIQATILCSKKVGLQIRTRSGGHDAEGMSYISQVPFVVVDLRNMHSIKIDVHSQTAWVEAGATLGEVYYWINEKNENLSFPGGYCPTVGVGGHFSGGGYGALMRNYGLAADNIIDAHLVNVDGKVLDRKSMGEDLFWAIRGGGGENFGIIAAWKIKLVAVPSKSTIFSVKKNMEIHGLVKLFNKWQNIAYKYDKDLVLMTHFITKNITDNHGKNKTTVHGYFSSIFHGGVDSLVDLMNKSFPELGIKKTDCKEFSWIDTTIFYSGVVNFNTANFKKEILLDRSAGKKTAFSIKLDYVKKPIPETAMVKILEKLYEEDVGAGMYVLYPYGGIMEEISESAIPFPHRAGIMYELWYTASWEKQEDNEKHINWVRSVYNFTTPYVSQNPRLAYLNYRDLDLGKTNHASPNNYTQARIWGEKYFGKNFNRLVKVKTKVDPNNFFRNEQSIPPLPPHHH
Assay: catalytic activity of THCA synthase from independent colonies of transformed pPink yeast cells (conversion of CBGA to THCA)
Type: biochemical
Settings: 25 μl cell free supernatant of T3 sample, 100 mM citrate buffer, 10% DMSO, final pH 5.0, 2 hours at 30° C.
Protocol: After 24 hours a 100 μL of the cell sample was removed to which was added 100 μL of 40% methanol to induce enzyme production. This methanolic sample was then centrifuged at 12,000 rpm for 5 minutes and the supernatant and pellet were saved as the T1 sample. A second culture sample was obtained after a 48 hour incubation period and treated with methanol as described above. After centrifugation, the supernatant and pellet are saved as the T2 sample. At 72 hours the entire incubation mixture is treated with an appropriate volume of 40% methanol. The supernatant and pellet obtained from methanolic treatment of the culture after a 72 hour incubation period is labeled as T3. The T3 supernatant was spun through an Amicon 30 kD protein filter and analyzed for protein using an SDS-PAGE gel.
The catalytic activity of THCA synthase was measured by incubating 25 μl of the cell free supernatant from a T3 sample with 25 μl of a 1 mg/ml CBGA stock in 200 μl of a 100 mM citrate buffer at pH 4.8 having 10% DMSO for 2 hours at 30° C. The final concentration of CBGA in the reaction mixture was 0.1 mg/ml and the final pH is 5.0. Table 4 illustrates the data related to the catalytic activity of THCA synthase obtained from independent colonies of transformed pPink yeast cells, namely. pPink yeast cells that were transformed using linearized THCA synthase plasmids. Culture samples that converted greater than 20% of the substrate CBGA to product THCA were selected for scale up.

Molecule | % Conversion of CBGA to THCA in reaction containing 0.1 mg/ml CBGA.
Pme THC #5: cell free supernatant with THCA synthase from a pPink yeast colony transformed with Pme I linearized THCA synthase plasmid (protein, UniProt Q8GTB6 29-545, looked up, yeast culture supernatant, cell free supernatant with THCA synthase from a pPink yeast colony transformed with Pme I linearized THCA synthase plasmid) Tetrahydrocannabinolic acid …: NPRENFLKCFSKHIPNNVANPKLVYTQHDQLYMSILNSTIQNLRFISDTTPKPLVIVTPSNNSHIQATILCSKKVGLQIRTRSGGHDAEGMSYISQVPFVVVDLRNMHSIKIDVHSQTAWVEAGATLGEVYYWINEKNENLSFPGGYCPTVGVGGHFSGGGYGALMRNYGLAADNIIDAHLVNVDGKVLDRKSMGEDLFWAIRGGGGENFGIIAAWKIKLVAVPSKSTIFSVKKNMEIHGLVKLFNKWQNIAYKYDKDLVLMTHFITKNITDNHGKNKTTVHGYFSSIFHGGVDSLVDLMNKSFPELGIKKTDCKEFSWIDTTIFYSGVVNFNTANFKKEILLDRSAGKKTAFSIKLDYVKKPIPETAMVKILEKLYEEDVGAGMYVLYPYGGIMEEISESAIPFPHRAGIMYELWYTASWEKQEDNEKHINWVRSVYNFTTPYVSQNPRLAYLNYRDLDLGKTNHASPNNYTQARIWGEKYFGKNFNRLVKVKTKVDPNNFFRNEQSIPPLPPHHH | 32.5%
Pme THC(2) #41: cell free supernatant with THCA synthase from a pPink yeast colony transformed with Pme I linearized THCA synthase plasmid (protein, UniProt Q8GTB6 29-545, looked up, yeast culture supernatant, cell free supernatant with THCA synthase from a pPink yeast colony transformed with Pme I linearized THCA synthase plasmid) Tetrahydrocannabinolic acid …: NPRENFLKCFSKHIPNNVANPKLVYTQHDQLYMSILNSTIQNLRFISDTTPKPLVIVTPSNNSHIQATILCSKKVGLQIRTRSGGHDAEGMSYISQVPFVVVDLRNMHSIKIDVHSQTAWVEAGATLGEVYYWINEKNENLSFPGGYCPTVGVGGHFSGGGYGALMRNYGLAADNIIDAHLVNVDGKVLDRKSMGEDLFWAIRGGGGENFGIIAAWKIKLVAVPSKSTIFSVKKNMEIHGLVKLFNKWQNIAYKYDKDLVLMTHFITKNITDNHGKNKTTVHGYFSSIFHGGVDSLVDLMNKSFPELGIKKTDCKEFSWIDTTIFYSGVVNFNTANFKKEILLDRSAGKKTAFSIKLDYVKKPIPETAMVKILEKLYEEDVGAGMYVLYPYGGIMEEISESAIPFPHRAGIMYELWYTASWEKQEDNEKHINWVRSVYNFTTPYVSQNPRLAYLNYRDLDLGKTNHASPNNYTQARIWGEKYFGKNFNRLVKVKTKVDPNNFFRNEQSIPPLPPHHH | 32.5%
Pme THC(2) #36: cell free supernatant with THCA synthase from a pPink yeast colony transformed with Pme I linearized THCA synthase plasmid (protein, UniProt Q8GTB6 29-545, looked up, yeast culture supernatant, cell free supernatant with THCA synthase from a pPink yeast colony transformed with Pme I linearized THCA synthase plasmid) Tetrahydrocannabinolic acid …: NPRENFLKCFSKHIPNNVANPKLVYTQHDQLYMSILNSTIQNLRFISDTTPKPLVIVTPSNNSHIQATILCSKKVGLQIRTRSGGHDAEGMSYISQVPFVVVDLRNMHSIKIDVHSQTAWVEAGATLGEVYYWINEKNENLSFPGGYCPTVGVGGHFSGGGYGALMRNYGLAADNIIDAHLVNVDGKVLDRKSMGEDLFWAIRGGGGENFGIIAAWKIKLVAVPSKSTIFSVKKNMEIHGLVKLFNKWQNIAYKYDKDLVLMTHFITKNITDNHGKNKTTVHGYFSSIFHGGVDSLVDLMNKSFPELGIKKTDCKEFSWIDTTIFYSGVVNFNTANFKKEILLDRSAGKKTAFSIKLDYVKKPIPETAMVKILEKLYEEDVGAGMYVLYPYGGIMEEISESAIPFPHRAGIMYELWYTASWEKQEDNEKHINWVRSVYNFTTPYVSQNPRLAYLNYRDLDLGKTNHASPNNYTQARIWGEKYFGKNFNRLVKVKTKVDPNNFFRNEQSIPPLPPHHH | 27.7%
Pme THC(2) #25: cell free supernatant with THCA synthase from a pPink yeast colony transformed with Pme I linearized THCA synthase plasmid (protein, UniProt Q8GTB6 29-545, looked up, yeast culture supernatant, cell free supernatant with THCA synthase from a pPink yeast colony transformed with Pme I linearized THCA synthase plasmid) Tetrahydrocannabinolic acid …: NPRENFLKCFSKHIPNNVANPKLVYTQHDQLYMSILNSTIQNLRFISDTTPKPLVIVTPSNNSHIQATILCSKKVGLQIRTRSGGHDAEGMSYISQVPFVVVDLRNMHSIKIDVHSQTAWVEAGATLGEVYYWINEKNENLSFPGGYCPTVGVGGHFSGGGYGALMRNYGLAADNIIDAHLVNVDGKVLDRKSMGEDLFWAIRGGGGENFGIIAAWKIKLVAVPSKSTIFSVKKNMEIHGLVKLFNKWQNIAYKYDKDLVLMTHFITKNITDNHGKNKTTVHGYFSSIFHGGVDSLVDLMNKSFPELGIKKTDCKEFSWIDTTIFYSGVVNFNTANFKKEILLDRSAGKKTAFSIKLDYVKKPIPETAMVKILEKLYEEDVGAGMYVLYPYGGIMEEISESAIPFPHRAGIMYELWYTASWEKQEDNEKHINWVRSVYNFTTPYVSQNPRLAYLNYRDLDLGKTNHASPNNYTQARIWGEKYFGKNFNRLVKVKTKVDPNNFFRNEQSIPPLPPHHH | 31.6%
Pme THC(2) #1: cell free supernatant with THCA synthase from a pPink yeast colony transformed with Pme I linearized THCA synthase plasmid (protein, UniProt Q8GTB6 29-545, looked up, yeast culture supernatant, cell free supernatant with THCA synthase from a pPink yeast colony transformed with Pme I linearized THCA synthase plasmid) Tetrahydrocannabinolic acid …: NPRENFLKCFSKHIPNNVANPKLVYTQHDQLYMSILNSTIQNLRFISDTTPKPLVIVTPSNNSHIQATILCSKKVGLQIRTRSGGHDAEGMSYISQVPFVVVDLRNMHSIKIDVHSQTAWVEAGATLGEVYYWINEKNENLSFPGGYCPTVGVGGHFSGGGYGALMRNYGLAADNIIDAHLVNVDGKVLDRKSMGEDLFWAIRGGGGENFGIIAAWKIKLVAVPSKSTIFSVKKNMEIHGLVKLFNKWQNIAYKYDKDLVLMTHFITKNITDNHGKNKTTVHGYFSSIFHGGVDSLVDLMNKSFPELGIKKTDCKEFSWIDTTIFYSGVVNFNTANFKKEILLDRSAGKKTAFSIKLDYVKKPIPETAMVKILEKLYEEDVGAGMYVLYPYGGIMEEISESAIPFPHRAGIMYELWYTASWEKQEDNEKHINWVRSVYNFTTPYVSQNPRLAYLNYRDLDLGKTNHASPNNYTQARIWGEKYFGKNFNRLVKVKTKVDPNNFFRNEQSIPPLPPHHH | 29.1%
Pme THC(2) #2A: cell free supernatant with THCA synthase from a pPink yeast colony transformed with Pme I linearized THCA synthase plasmid (protein, UniProt Q8GTB6 29-545, looked up, yeast culture supernatant, cell free supernatant with THCA synthase from a pPink yeast colony transformed with Pme I linearized THCA synthase plasmid) Tetrahydrocannabinolic acid …: NPRENFLKCFSKHIPNNVANPKLVYTQHDQLYMSILNSTIQNLRFISDTTPKPLVIVTPSNNSHIQATILCSKKVGLQIRTRSGGHDAEGMSYISQVPFVVVDLRNMHSIKIDVHSQTAWVEAGATLGEVYYWINEKNENLSFPGGYCPTVGVGGHFSGGGYGALMRNYGLAADNIIDAHLVNVDGKVLDRKSMGEDLFWAIRGGGGENFGIIAAWKIKLVAVPSKSTIFSVKKNMEIHGLVKLFNKWQNIAYKYDKDLVLMTHFITKNITDNHGKNKTTVHGYFSSIFHGGVDSLVDLMNKSFPELGIKKTDCKEFSWIDTTIFYSGVVNFNTANFKKEILLDRSAGKKTAFSIKLDYVKKPIPETAMVKILEKLYEEDVGAGMYVLYPYGGIMEEISESAIPFPHRAGIMYELWYTASWEKQEDNEKHINWVRSVYNFTTPYVSQNPRLAYLNYRDLDLGKTNHASPNNYTQARIWGEKYFGKNFNRLVKVKTKVDPNNFFRNEQSIPPLPPHHH | 27.2%
